Measurements: IntAct's records for PubMed 21063388

B1: Trinucleotide repeat-containing gene 6C protein (Homo sapiens), Q9HCJ0-1 (parent)
chain: MATGSAQGNFTGHTKKTNGNNGTNGALVQSPSNQSALGAGGANSNGSAARVWGVATGSSSGLAHCSVSGGDGKMDTMIGDGRSQNCWGASNSNAGINLNLNPNANPAAWPVLGHEGTVATGNPSSICSPVSAIGQNMGNQNGNPTGTLGAWGNLLPQESTEPQTSTSQNVSFSAQPQNLNTDGPNNTNPMNSSPNPINAMQTNGLPNWGMAVGMGAIIPPHLQGLPGANGSSVSQVSGGSAEGISNSVWGLSPGNPATGNSNSGFSQGNGDTVNSALSAKQNGSSSAVQKEGSGGNAWDSGPPAGPGILAWGRGSGNNGVGNIHSGAWGHPSRSTSNGVNGEWGKPPNQHSNSDINGKGSTGWESPSVTSQNPTVQPGGEHMNSWAKAASSGTTASEGSSDGSGNHNEGSTGREGTGEGRRRDKGIIDQGHIQLPRNDLDPRVLSNTGWGQTPVKQNTAWEFEESPRSERKNDNGTEAWGCAATQASNSGGKNDGSIMNSTNTSSVSGWVNAPPAAVPANTGWGDSNNKAPSGPGVWGDSISSTAVSTAAAAKSGHAWSGAANQEDKSPTWGEPPKPKSQHWGDGQRSNPAWSAGGGDWADSSSVLGHLGDGKKNGSGWDADSNRSGSGWNDTTRSGNSGWGNSTNTKANPGTNWGETLKPGPQQNWASKPQDNNVSNWGGAASVKQTGTGWIGGPVPVKQKDSSEATGWEEPSPPSIRRKMEIDDGTSAWGDPSNYNNKTVNMWDRNNPVIQSSTTTNTTTTTTTTTSNTTHRVETPPPHQAGTQLNRSPLLGPGRKVSSGWGEMPNVHSKTENSWGEPSSPSTLVDNGTAAWGKPPSSGSGWGDHPAEPPVAFGRAGAPVAASALCKPASKSMQEGWGSGGDEMNLSTSQWEDEEGDVWNNAASQESTSSCSSWGNAPKKGLQKGMKTSGKQDEAWIMSRLIKQLTDMGFPREPAEEALKSNNMNLDQAMSALLEKKVDVDKRGLGVTDHNGMAAKPLGCRPPISKESSVDRPTFLDKDGGLVEEPTPSPFLPSPSLKLPLSHSALPSQALGGIASGLGMQNLNSSRQIPSGNLGMFGNSGAAQARTMQQPPQPPVQPLNSSQPSLRAQVPQFLSPQVQAQLLQFAAKNIGLNPALLTSPINPQHMTMLNQLYQLQLAYQRLQIQQQMLQAQRNVSGSMRQQEQQVARTITNLQQQIQQHQRQLAQALLVKQPPPPPPPPHLSLHPSAGKSAMDSFPSHPQTPGLPDLQTKEQQSSPNTFAPYPLAGLNPNMNVNSMDMTGGLSVKDPSQSQSRLPQWTHPNSMDNLPSAASPLEQNPSKHGAIPGGLSIGPPGKSSIDDSYGRYDLIQNSESPASPPVAVPHSWSRAKSDSDKISNGSSINWPPEFHPGVPWKGLQNIDPENDPDVTPGSVPTGPTINTTIQDVNRYLLKSGGKLSDIKSTWSSGPTSHTQASLSHELWKVPRNSTAPTRPPPGLTNPKPSSTWGASPLGWTSSYSSGSAWSTDTSGRTSSWLVLRNLTPQIDGSTLRTLCLQHGPLITFHLNLTQGNAVVRYSSKEEAAKAQKSLHMCVLGNTTILAEFAGEEEVNRFLAQGQALPPTSSWQSSSASSQPRLSAAGSSHGLVRSDAGHWNAPCLGGKGSSELLWGGVPQYSSSLWGPPSADDSRVIGSPTPLTTLLPGDLLSGESL
B2: Protein Gawky (Drosophila melanogaster (Fruit fly)), Q8SY33 (parent)
chain: MREALFSQDGWGCQHVNQDTNWEVPSSPEPANKDAPGPPMWKPSINNGTDLWESNLRNGGQPAAQQVPKPSWGHTPSSNLGGTWGEDDDGADSSSVWTGGAVSNAGSGAAVGVNQAGVNVGPGGVVSSGGPQWGQGVVGVGLGSTGGNGSSNITGSSGVATGSSGNSSNAGNGWGDPREIRPLGVGGSMDIRNVEHRGGNGSGATSSDPRDIRMIDPRDPIRGDPRGISGRLNGTSEMWGHHPQMSHNQLQGINKMVGQSVATASTSVGTSGSGIGPGGPGPSTVSGNIPTQWGPAQPVSVGVSGPKDMSKQISGWEEPSPPPQRRSIPNYDDGTSLWGQQTRVPAASGHWKDMTDSIGRSSHLMRGQSQTGGIGIAGVGNSNVPVGANPSNPISSVVGPQARIPSVGGVQHKPDGGAMWVHSGNVGGRNNVAAVTTWGDDTHSVNVGAPSSGSVSSNNWVDDKSNSTLAQNSWSDPAPVGVSWGNKQSKPPSNSASSGWSTAAGVVDGVDLGSEWNTHGGIIGKSQQQQKLAGLNVGMVNVINAEIIKQSKQYRILVENGFKKEDVERALVIANMNIEEAADMLRANSSLSMDGWRRHDESLGSYADHNSSTSSGGFAGRYPVNSGQPSMSFPHNNLMNNMGGTAVTGGNNNTNMTALQVQKYLNQGQHGVAVGPQAVGNSSAVSVGFGQNTSNAAVAGAASVNIAANTNNQPSGQQIRMLGQQIQLAIHSGFISSQILTQPLTQTTLNLLNQLLSNIKHLQAAQQSLTRGGNVNPMAVNVAISKYKQQIQNLQNQINAQQAVYVKQQNMQPTSQQQQPQQQQLPSVHLSNSGNDYLRGHDAINNLQSNFSELNINKPSGYQGASNQQSRLNQWKLPVLDKEINSDSTEFSRAPGATKQNLTANTSNINSLGLQNDSTWSTGRSIGDGWPDPSSDNENKDWSVAQPTSAATAYTDLVQEFEPGKPWKGSQIKSIEDDPSITPGSVARSPLSINSTPKDADIFANTGKNSPTDLPPLSLSSSTWSFNPNQNYPSHSWSDNSQQCTATSELWTSPLNKSSSRGPPPGLTANSNKSANSNASTPTTITGGANGWLQPRSGGVQTTNTNWTGGNTTWGSSWLLLKNLTAQIDGPTLRTLCMQHGPLVSFHPYLNQGIALCKYTTREEANKAQMALNNCVLANTTIFAESPSENEVQSIMQHLPQTPSSTSSSGTSGGNVGGVGTSANNANSGSAACLSGNNSGNGNGSASGAGSGNNGNSSCNNSAAGGGSSSNNTITTVANSNLVGSSGSVSNSSGVTANSSTVSVVSCTASGNSINGAGTANSSGSKSSANNLASGQSSASNLTNSTNSTWRQTSQNQALQSQSRPSGREADFDYISLVYSIVDD
B3: Trinucleotide repeat-containing gene 6A protein (Homo sapiens), Q8NDV7 (parent)
chain: MRELEAKATKDVERNLSRDLVQEEEQLMEEKKKKKDDKKKKEAAQKKATEQKIKVPEQIKPSVSQPQPANSNNGTSTATSTNNNAKRATANNQQPQQQQQQQQPQQQQPQQQPQPQPQQQQPQQQPQALPRYPREVPPRFRHQEHKQLLKRGQHFPVIAANLGSAVKVLNSQSESSALTNQQPQNNGEVQNSKNQSDINHSTSGSHYENSQRGPVSSTSDSSTNCKNAVVSDLSEKEAWPSAPGSDPELASECMDADSASSSESERNITIMASGNTGGEKDGLRNSTGLGSQNKFVVGSSSNNVGHGSSTGPWGFSHGAIISTCQVSVDAPESKSESSNNRMNAWGTVSSSSNGGLNPSTLNSASNHGAWPVLENNGLALKGPVGSGSSGINIQCSTIGQMPNNQSINSKVSGGSTHGTWGSLQETCESEVSGTQKVSFSGQPQNITTEMTGPNNTTNFMTSSLPNSGSVQNNELPSSNTGAWRVSTMNHPQMQAPSGMNGTSLSHLSNGESKSGGSYGTTWGAYGSNYSGDKCSGPNGQANGDTVNATLMQPGVNGPMGTNFQVNTNKGGGVWESGAANSQSTSWGSGNGANSGGSRRGWGTPAQNTGTNLPSVEWNKLPSNQHSNDSANGNGKTFTNGWKSTEEEDQGSATSQTNEQSSVWAKTGGTVESDGSTESTGRLEEKGTGESQSRDRRKIDQHTLLQSIVNRTDLDPRVLSNSGWGQTPIKQNTAWDTETSPRGERKTDNGTEAWGSSATQTFNSGACIDKTSPNGNDTSSVSGWGDPKPALRWGDSKGSNCQGGWEDDSAATGMVKSNQWGNCKEEKAAWNDSQKNKQGWGDGQKSSQGWSVSASDNWGETSRNNHWGEANKKSSSGGSDSDRSVSGWNELGKTSSFTWGNNINPNNSSGWDESSKPTPSQGWGDPPKSNQSLGWGDSSKPVSSPDWNKQQDIVGSWGIPPATGKPPGTGWLGGPIPAPAKEEEPTGWEEPSPESIRRKMEIDDGTSAWGDPSKYNYKNVNMWNKNVPNGNSRSDQQAQVHQLLTPASAISNKEASSGSGWGEPWGEPSTPATTVDNGTSAWGKPIDSGPSWGEPIAAASSTSTWGSSSVGPQALSKSGPKSMQDGWCGDDMPLPGNRPTGWEEEEDVEIGMWNSNSSQELNSSLNWPPYTKKMSSKGLSGKKRRRERGMMKGGNKQEEAWINPFVKQFSNISFSRDSPEENVQSNKMDLSGGMLQDKRMEIDKHSLNIGDYNRTVGKGPGSRPQISKESSMERNPYFDKDGIVADESQNMQFMSSQSMKLPPSNSALPNQALGSIAGLGMQNLNSVRQNGNPSMFGVGNTAAQPRGMQQPPAQPLSSSQPNLRAQVPPPLLSPQVPVSLLKYAPNNGGLNPLFGPQQVAMLNQLSQLNQLSQISQLQRLLAQQQRAQSQRSVPSGNRPQQDQQGRPLSVQQQMMQQSRQLDPNLLVKQQTPPSQQQPLHQPAMKSFLDNVMPHTTPELQKGPSPINAFSNFPIGLNSNLNVNMDMNSIKEPQSRLRKWTTVDSISVNTSLDQNSSKHGAISSGFRLEESPFVPYDFMNSSTSPASPPGSIGDGWPRAKSPNGSSSVNWPPEFRPGEPWKGYPNIDPETDPYVTPGSVINNLSINTVREVDHLRDRNSGSSSSLNTTLPSTSAWSSIRASNYNVPLSSTAQSTSARNSDSKLTWSPGSVTNTSLAHELWKVPLPPKNITAPSRPPPGLTGQKPPLSTWDNSPLRIGGGWGNSDARYTPGSSWGESSSGRITNWLVLKNLTPQIDGSTLRTLCMQHGPLITFHLNLPHGNALVRYSSKEEVVKAQKSLHMCVLGNTTILAEFASEEEISRFFAQSQSLTPSPGWQSLGSSQSRLGSLDCSHSFSSRTDLNHWNGAGLSGTNCGDLHGTSLWGTPHYSTSLWGPPSSSDPRGISSPSPINAFLSVDHLGGGGESM

Variants of: B1
Conditions: with pabp_drome pAbp
Target sequence in this assay (P21187 whole entry): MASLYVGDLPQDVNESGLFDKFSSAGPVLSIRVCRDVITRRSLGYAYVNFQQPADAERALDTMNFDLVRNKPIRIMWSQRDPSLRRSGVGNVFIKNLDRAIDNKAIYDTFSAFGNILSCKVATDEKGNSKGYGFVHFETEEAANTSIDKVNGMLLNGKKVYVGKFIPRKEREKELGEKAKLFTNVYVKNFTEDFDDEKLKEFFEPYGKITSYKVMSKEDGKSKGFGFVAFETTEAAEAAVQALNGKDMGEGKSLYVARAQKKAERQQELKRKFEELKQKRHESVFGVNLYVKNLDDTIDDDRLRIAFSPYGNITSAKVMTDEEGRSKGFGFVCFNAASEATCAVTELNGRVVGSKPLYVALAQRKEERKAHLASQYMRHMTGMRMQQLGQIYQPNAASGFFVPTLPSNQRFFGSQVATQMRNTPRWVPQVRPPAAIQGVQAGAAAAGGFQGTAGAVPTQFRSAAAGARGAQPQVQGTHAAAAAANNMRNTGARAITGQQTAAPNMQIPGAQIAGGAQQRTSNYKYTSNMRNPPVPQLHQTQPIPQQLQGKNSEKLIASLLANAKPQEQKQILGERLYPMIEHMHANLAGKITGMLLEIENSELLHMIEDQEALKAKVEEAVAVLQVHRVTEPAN

effect of a mutation on the interaction	Variant
disrupting interaction	F1389A

Variants of: B1
Conditions: with pabp1_human PABPC1, P11940
Target sequence in this assay (P11940 whole entry): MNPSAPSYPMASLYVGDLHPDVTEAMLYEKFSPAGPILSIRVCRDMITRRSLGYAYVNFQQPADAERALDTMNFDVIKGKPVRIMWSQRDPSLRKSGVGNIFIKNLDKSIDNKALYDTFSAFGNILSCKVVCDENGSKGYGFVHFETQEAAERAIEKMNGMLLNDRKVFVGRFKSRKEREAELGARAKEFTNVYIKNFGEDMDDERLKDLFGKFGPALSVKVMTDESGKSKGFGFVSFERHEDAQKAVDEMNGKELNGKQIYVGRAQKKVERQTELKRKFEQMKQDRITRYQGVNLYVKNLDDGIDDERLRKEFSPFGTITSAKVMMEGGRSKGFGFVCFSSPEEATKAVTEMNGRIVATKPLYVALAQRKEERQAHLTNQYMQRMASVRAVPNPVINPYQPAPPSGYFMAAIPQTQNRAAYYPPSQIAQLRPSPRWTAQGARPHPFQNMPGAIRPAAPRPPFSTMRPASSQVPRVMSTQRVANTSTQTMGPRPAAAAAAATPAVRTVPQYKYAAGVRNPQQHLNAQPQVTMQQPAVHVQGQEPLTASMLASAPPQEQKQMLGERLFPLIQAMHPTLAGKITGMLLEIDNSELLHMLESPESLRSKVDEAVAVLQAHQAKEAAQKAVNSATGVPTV

effect of a mutation on the interaction	Variant
disrupting interaction	F1389A

Variants of: B2
Conditions: with pabp_drome pAbp
Target sequence in this assay (P21187 whole entry): as the sequence (P21187 whole entry) above

effect of a mutation on the interaction	Variant
increasing interaction	Q959P
increasing interaction	V958P

Variants of: B2
Conditions: with pabp_drome pAbp
Remark: another data set of the same source
Target sequence in this assay (P21187 whole entry): as above

effect of a mutation on the interaction	Variant
increasing interaction	E962Q

Variants of: B2
Conditions: with pabp_drome pAbp
Remark: another data set of the same source
Target sequence in this assay (P21187 whole entry): as above

effect of a mutation on the interaction	Variant
disrupting interaction	F961A

Variants of: B3
Conditions: with pabp_drome pAbp
Target sequence in this assay (P21187 whole entry): as above

effect of a mutation on the interaction	Variant
disrupting interaction	F1612A

Variants of: B3
Conditions: with pabp1_human PABPC1, P11940
Target sequence in this assay (P11940 whole entry): as the sequence (P11940 whole entry) above

effect of a mutation on the interaction	Variant
disrupting interaction	F1612A
